# According to the DeepSol protein solubility set:
# Assay: soluble on expression in E. coli; label from the status in PepcDB or PDB records
row,Sequence,soluble on expression in E. coli
1,MGSDKIHHHHHHMDRYRGNAEAVKNLVRGHAVHRDVYVDKEVFDLEMEQLFPNSWVYVGHESQLKDPGDYITSKIGHQPILISRHKNGTIHVLHNRCPHKGVKIASEPCGNTGKFFRCPYHAWSFKTDGSLLAIPLKKGYEGTGFDNDRAKDGLPRVENVHIYRGFIFARLSDTGLSFEDYFGDSLSTIDNMVDRSPKGEVEIIAAPIRYMHTCNWKMLVDNQTDTCHPMVAHESSAGTAVSVWEREKHRFTETPMAVQLYAPFMSPYEFYESAGIRVWPNGHGHSGVSGSIHQDYDDVDGYLEMMVEAYGETRAREILGDIRHNTLYFPNVMVKGPVGILRNFIPVAVDRTLVESWAFRLVGAPDKIYERALMYNRFINAPTSIVGHDDLEMYERAQEGLLSDANEWINLRRLYEEGEPEDVTEVVNGTSERQMRNTFYAWRKFMVQGMEQKQEVSA,not soluble
2,MSLITIGITGGIGSGKSVVSRILLTLGIPVYDSDSRAKWLNDHSPVVRQALTGLIGSDLYENGILRRDRLAAAIFSSGDLLEQVNGIIHPEVKKDFCQWRSECESDLCAIESAILFSSGFNSLCDTVIRVDAPEKIRQERAMARDGSSAETMRQRMLSQEREQSLAKAGADHTVLNAPPHLLVPQVVRIIETVRTKRPNPPDEGHHHHHH,soluble
3,GMLFSIQTCPCQINPALNAVSTPLLYQDCCQPYHDGLYNQEVEDSDAIRADTAEHLMRTRYSAFVLVKPEYIVKTTLPAQQDLLDIKAIENWAKETDWAGLEVVAHTPKLSKRHAQVEFKAYFKTPDGLQAHHELSTFVKIKNKANSDASWYFLDPTVSMSVTQKQPCICGSGEKFKRCCGMYI,soluble
4,MSNPITITESAQSHFAKLLAQQPEGTNIRVFVVNPGTQNAECGVSYCPPEAVEATDTEYPFSGFSAYVDELSLPFLEEAVIDFVTDKMGSQLTLKAPNAKMRKVSDDASLMERVEYALQTQVNPQLAGHGGHVRLISISDDGVALVQFGGGCNGCSMVDVTLKEGIEKELLAQFAGELTAVRDSTEHDRGEHSYY,not soluble
5,MNLKAMDAILEDCCDIVCSDYLPSAMIKSMCIVAERINNLNKAVSLFTSNPAKAVGIYDERGSIKENKKADLVLVDIDSEYPKVVNTIVNGKTVYKRELEHHHHHH,not soluble
6,MNGDVQSVIRGYLERAQVAKTMSDAGRWNEAGDLLRQLMTDVKSCKISASNRDEHDARNTFLRALEANLKLVQQNVRDEDDLHEAMTRQSGSPEPPADPDVWSKPSPPLPSSSKFGATKKGVGAAGPRPREISKSTSSMSTNPADVKPANPTQGILPQNSAGDSFDASAYDAYIVQAVRGTMATNTENTMSLDDIIGMHDVKQVLHEAVTLPLLVPEFFQGLRSPWKAMVLAGPPGTGKTLIARAIASESSSTFFTVSSTDLSSKWRGDSEKIVRLLFELARFYAPSIIFIDEIDTLGGQRGNSGEHEASRRVKSEFLVQMDGSQNKFDSRRVFVLAATNIPWELDEALRRRFEKRIFIPLPDIDARKKLIEKSMEGTPKSDEINYDDLAARTEGFSGADVVSLCRTAAINVLRRYFRYDTKSLRGGELTAAMESLKAELVRNIDFEAALQAVSPSAGPDTMLKCKEWCDSFGAM,not soluble
7,QITLKESGPGIVQPSQPFRLTCTFSGFSLSTSGIGVTWIRQPSGKGLEWLATIWWDDDNRYNPSLKSRLTVSKDTSNNQAFLNMMTVETADTAIYYCAQSAITSVTDSAMDHWGQGTSVTVSSAKTTPPSVYPLAPGSAAQTNSMVTLGCLVKGYFPEPVTVTWNSGSLSSGVHTFPAVLQSDLYTLSSSVTVPSSTWPSETVTCNVAHPASSTKVDKKIVPADC,soluble
8,MKNVGFIGWRGMVGSVLMDRMSQENDFENLNPVFFTTSQAGQKAPVFGGKDAGDLKSAFDIEELKKLDIIVTCQGGDYTNEVYPKLKATGWDGYWVDAASALRMKDDAIIVLDPVNQHVISEGLKKGIKTFVGGNCTVSLMLMAIGGLFEKDLVEWISVATYQAASGAGAKNMRELLSQMGLLEQAVSSELKDPASSILDIERKVTAKMRADNFPTDNFGAALGGSLIPWIDKLLPETGQTKEEWKGYAETNKILGLSDNPIPVDGLCVRIGALRCHSQAFTIKLKKDLPLEEIEQIIASHNEWVKVIPNDKEITLRELTPAKVTGTLSVPVGRLRKLAMGPEYLAAFTVGDQLLWGAAEPVRRILKQLVA,soluble
9,MAEELVLERCDLELETNGRDHHTADLCREKLVVRRGQPFWLTLHFEGRNYQASVDSLTFSVVTGPAPSQEAGTKARFPLRDAVEEGDWTATVVDQQDCTLSLQLTTPANAPIGLYRLSLEASTGYQGSSFVLGHFILLFNAWCPADAVYLDSEEERQEYVLTQQGFIYQGSAKFIKNIPWNFGQFQDGILDICLILLDVNPKFLKNAGRDCSRRSSPVYVGRVGSGMVNCNDDQGVLLGRWDNNYGDGVSPMSWIGSVDILRRWKNHGCQRVKYGQCWVFAAVACTVLRCLGIPTRVVTNYNSAHDQNSNLLIEYFRNEFGEIQGDKSEMIWNFHCWVESWMTRPDLQPGYEGWQALDPTPQEKSEGTYCCGPVPVRAIKEGDLSTKYDAPFVFAEVNADVVDWIQQDDGSVHKSINRSLIVGLKISTKSVGRDEREDITHTYKYPEGSSEEREAFTRANHLNKLAEKEETGMAMRIRVGQSMNMGSDFDVFAHITNNTAEEYVCRLLLCARTVSYNGILGPECGTKYLLNLTLEPFSEKSVPLCILYEKYRDCLTESNLIKVRALLVEPVINSYLLAERDLYLENPEIKIRILGEPKQKRKLVAEVSLQNPLPVALEGCTFTVEGAGLTEEQKTVEIPDPVEAGEEVKVRMDLVPLHMGLHKLVVNFESDKLKAVKGFRNVIIGPA,soluble
10,MTNVFHHVRNFIEQQPAPAKTLEKSSSPNILYTALPKHWRSNKSFQEPFYVVLLTPVPDNTEVSIWAGNDEKPCEEVRNEKAKVHRQVAKFNDLRFVGRSGRGRKFHLTIVIHSAPMMVATVKNVIKVTVDGPRDARIPKPQGSLKRQAEQQTIFPNDIIRTPGPPMPMTMIPPPWFPLPMTQTFPPSFFPLISPGPHPSISAALWKIHSESMKTPIKQKVEQENVSLNTSTCLSSPSIFITPTSDDRKLKRPSSPRSITKSSETSINLIQETPESVESKRRRNVSITSSNSSSPTIWRPF,not soluble
11,MLNSYELGTSFSLEYPRLVLPWMSKKMMSSRFPQHTSFKLYASQLNRARFFKMLSFGGTVSYDFQPSRVWKHTVTPFRLAFNTLQHTTTRFDTIVDKNRSLKISLGNQFIPAMSYTFTYDNAPLKKRNNLWWETSFTSAGNLTSLVYAAFGKGFKETDKKLLNSPYAQFLKMTSEVRCLFKVGEKQHIATRLMGGILYAYGNQTVAPYSEQFYIGGANSIRAFTVRSIGPGSYRPEDKQYGYLDETGDVKLEANVEYRFPILGDLYGAAFLDAGNVWLLREQKNEEGENIRPGGLLTLRNFAKSIALGTGVGLRYDLTFLVIRLDLGIALHDPYDTGKKGYYNIPKFKDGLGLHFAIGYPFLEHHHHHH,soluble
12,MAHHHHHHMEDGEALDLQDALKPEVKERPVRLIKIERHDGTKAFLNSVIEMAQVVLDNMPPDACYKDIAIKLKTKLDEVEKGTWHVIVGSHFGANVTNDSETLVNFKIDEMHILLFRSGPPERPMSLNDEGS,soluble
13,MGSDKIHHHHHHMSYSDVIAIAGGWEGYRVAGARTIVTSDAKRIEVELIALSQDEMVCGSCGGRCTSVHETTKRVIRDLPILDAQTYLIVHRRRLLCPQCGPTLERLSWLAKYARVTRRLAESVARLCGVVSVKHVAQYLGLSWDQVKEIDKRSLTERVGTVDLSNIEVLGMDEFALHKGHRYATVIIEPYRKEVLWIGKGRSRESIRPFFTQLGPHGCKRLKAVVMDMNASYEEEIKQHSPQADIVYDLFHVVAKYGREVIDRVRVDEANRLKEDKKARKVVKTSRWLLLRNSENVKGDDMLRLQELLEANRSLLTVYLLKDDLKQLWKFTCIEEAGLFWEQWHQRAMESGIPPLILFARRLKGYLQGILNHCLWPLHTGILEGINNKIKVIKRMAYGFRDHEYFFLKIRAAFPGIPG,not soluble
14,MKQVTVLLIGLGRMGSRFFDKFVEIGEERVKIVGVCELNEQNPKVLEAKKRNIPLYPSYKEALTDLHESVDIILDTSNISEVKRDIRELLSRQNNQHSVLLPMVADYLLWYMLPNAEEIPQDHTDIGY,not soluble
15,CRELLPVEARQKTLLIDADLTLDEITPKFLNVLEQFAPFGFSNREPLFTATGCRLVGKPKLLRERHVKFTVRGEQSSSFEVIAFDRPDIFNDLEAHGSASALQLVCIPERNQWNGREYVQLRVMDMAIG,not soluble
16,MGSDKIHHHHHHMMQLLVTGATGFVGKTLCSALRRQSFPVKAIGRAGTIRADALGDQVASIDGQTDWSLILDGINAVIHLAARVHVMREQLADPLAAYRETNVEGTLNLARQAAKAGVKRFVFISSIKVNGEQTLPGKPFTAYDVPAPEDAYGISKFEAEQGLLALARETGMDVVVIRPPLVYGPGVKGNFASMMKLVKSGIPLPLGAIHNQRSLVAIDNLVNLIVTCIDHPAAANQVFLVSDGEDLSTSDLLRRLAKAAGVSSRLMPVSARWLEMGLRMCGKRLIAQRLLGSLQVDISKTRELLGWVPPISVDEGLKRCFSTKG,not soluble
17,MGSRENLYFQGLEHHHHHHHMKNVKTLIAAAILSSMSFASFAAVEVQSTPEGQQKVGTISANAGTNLGSLEEQLAQKADEMGAKSFRITSVTGPNTLHGTAVIYK,soluble
18,MSLKVLIKTDLVLGAPKTLRDVYIGIDEGQIKVISKEKPEDYDYAEYVIGGKNRVVAPGFVTTHSFLYLYPFRYRVFSGKANAFQLMSTLTPNDIYYFSLMGAYHLLKTGVTTVVTSGPNLDMIARAISEVGLRPVLAVGVDCPDSKEDWEREFTTLYNRWSSKNENRVILRLCSNEYSKEVFELSQQYDFPVLLERFVSLENISGNPINVIGLGGGARKDLDIIKQKGFHLASTPSYEVSQFPLSQYKPSISLDLSPTFDIRHEVSTSITRLILTPEEALNAMTIWGLLQLKYNDRGVLENGKVADLVIFEVKEPPTFPLDYESPYESIVFNLSTPETVLVSGEAILDGGVPLNIGIKHIEKAIERLEDIDKKVTRPARYMEKDEGHHHHHH,not soluble
19,MGSDKIHHHHHHMVRMEEPAVKQGFLHLQQQQTFGKKWRRFAAVLYGESGCALARLELQDVPEKTRRGEATRKVVRLSDCLRVAEVGSEASSPRDTSAFILETKERLYLLAAPSAERSDWIQAICLLAFPGQRKGSPGLEEKSGSPCMEENELYSSSTTGLCKEYMVTIRPTEASERCRLRGSYTLRTGVSALELWGGPEPGTQLYDWPYRFLRRFGRDKATFSFEAGRRCLSGEGNFEFETRHGNEIFQALEKVITVQKNATPSGPPSLPATGPMMPTVLPRPESPYSRPHDSLPSPSPGTLVPGMRPGAPEGEYAVPFDTVAHSLRKSFRGLLTGPPPHLPDPLYDSIQEDPGAPLPDHIYDEPEGVAALSLYDRTQRPSGETWREQATADGGPSSLQQDSSVPDWPQATEYDNVILKKGP,not soluble
20,MGSDKIHHHHHHMFDKQEFVSKLVTEEKAKIVLLVMDGLGDIPVNGKTPLQAANTPNLDNLAKESDLGQTIPVLPGITPGSGPGHLSLFGYDPIKYQIGRGILEALGIGVEVGEKDVVARANFATWDGKVVLDRRAGRPATEESAKVVQLLSEKIKKIEDVEITFYPGKEHRFVVKFTGEGLGDKVTDADPQKEGHPMVWAEGLDEPSKKTARIVNELIKKIAEVLKDNPKINFALIRGFSKYPDLPKFPQVYKMKAGAIATYPMYRGLAKLVGMEIIETGQTVADEIKTLKEKWNDYDFFYVHVKKTDSYGEDGKFEEKVKVIEEVDAIIPEIVSLNPDVLVITGDHSTPVPLKAHSWHPVPLLIWSKYTRRGLSQAFNEFECARGTLGTIHASDVMTLALAYAGKLEKFGA,not soluble
